Reference: patent US20190248902A1 (published 2019)

T1: recombinant, soluble human ASGR-1 (human, UniProt P07306 62-291)
T1 construct: biotinylated in the binning assay; also called soluble huASGR-1; Soluble ASGR-1 (Amgen)
T1 sequence: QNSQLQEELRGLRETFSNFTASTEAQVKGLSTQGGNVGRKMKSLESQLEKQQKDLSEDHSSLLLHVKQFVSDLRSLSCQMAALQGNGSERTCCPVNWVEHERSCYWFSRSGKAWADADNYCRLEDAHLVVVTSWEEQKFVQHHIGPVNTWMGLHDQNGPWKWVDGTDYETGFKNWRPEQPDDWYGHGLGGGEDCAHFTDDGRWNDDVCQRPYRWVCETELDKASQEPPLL


Tests used:
[1] = biological target: T1, recombinant, soluble human ASGR-1; assay: Octet BLI dissociation, pH 5.6 plus calcium
Experimental: (§1) The relative dissociation of ASGR-1 from antibodies was measured using a label-free assay on an OctetHTX instrument (Fortebio). Antibody samples were captured on anti-HuFc kinetic biosensors (ForteBio cat #18-5064) at 5 ug/mL in assay buffer (10 mM Tris, 0.1% Triton, 150 mM NaCl, 1 mg/mL BSA, 1 mM CaCl2, pH7.4) for three minutes. A one minute baseline stabilization step was performed in assay buffer. Soluble ASGR-1 (Amgen) at 6 ug/ml in assay buffer was added and association to the antibodies was monitored for two minutes. Subsequent dissociation of ASGR-1 from the antibodies was performed by incubating the ASGR-1-mAb complexes for 10 minutes under each of the following conditions:
(§2) The binding signal at the end of the 2 minute association phase for each dissociation experiment was set to 100% and used to represent the maximal level of ASGR-1 binding. After 1 minute of dissociation, the percentage of ASGR-1 remaining bound was calculated. The lower the percent remaining at a given time point indicates increased levels of dissociation in response to the test conditions (ie. different pH and/or calcium concentrations). The change in the percentage of ASGR-1 remaining bound in response to each test condition relative to the percent remaining in the control conditions (ie. pH 7.4+calcium) was determined. Cut-offs for an antibody to be categorized as being sensitive to a particular condition were set to >10% (ie. if >10% of the ASGR-1 dissociates from the antibody under a particular test condition compared to control condition, it was deemed sensitive to that condition). The analysis was done using the 1 minute dissociation time point (except for mAb 149A1 which was binned based on the 4 minute dissociation time point). Using this analysis, the ASGR-1-binding, receptor-ligand blocking antibodies were separated into groups according to their dissociation profiles in response to pH and calcium (Table 7.3). Antibodies belonging to each category were observed.

[2] = biological target: T1, recombinant, soluble human ASGR-1; assay: Octet BLI dissociation, pH 5.6 minus calcium
Experimental: as §1, §2

[3] = biological target: T1, recombinant, soluble human ASGR-1; assay: Octet BLI dissociation, pH 7.4 minus calcium
Experimental: as §1, §2

Binder	% Change Compared to pH 7.4 + Calcium [1] [%]	% Change Compared to pH 7.4 + Calcium [2] [%]	% Change Compared to pH 7.4 + Calcium [3] [%]
6G7 (antibody, V domains shown, hybridoma mAb) VH: QVQLVESGGGVVQPGRSLRLSCAASGFTFSSYGMHWVRQTPGKGLEWVAIISYVGKNKYYADSVKGRFTISRDNSKNTLYLQMNSLRAEDTAVYYCARRGNSYGGYGMDVWGQGTTVTVSS VL: DIQMTQSPSSRSASVGDRVTITCQASQDISNYLNWCQQKPGKALKLLIYDASTLETGVPSRFSGSGSGTDFTFTISSVQPEDIATYYCQQYDNVPITFGQGTRLEIK	4	16	8
6D9 (antibody, V domains shown, hybridoma mAb) VH: EVQLVESGGGLVKPGGSLRLSCAASGFTFSNAWMNWVRLAPGKGLEWVGRIKSKTDGGTTDYAAPVKGRFTISRDDSENTLYLQMNSLKTEDTAVYYCSTDTGPIAARLAYYYYYAMDVWGQGTTVTVSS VL: not shown	25	42	14
7E11 (antibody, V domains shown, hybridoma mAb) VH: QVQLVESGGGVVQPGRSLRLSCAASGFTFSSFGMHWVRQAPGKGLEWVAIIWHDGSNKYYADSVKGRFTISRDNSNNTLYLQMSSLRAEDTAVYYCARDLSMGGMDVWGQGTTVTVSS VL: DIQMTQSPSSLSASVGDRVTIACRASQNIISYLNWYQQKPGKAPKFLIYTASSLQSGVPSRFSGSGSGTDFTLTISSLQPEDFAIYYCQQTYSTPLTFGGGTKVEIK	5	14	9
6G6 (antibody, V domains shown, hybridoma mAb) VH: QVQLVQSGAEVRKPGASVKVSCKASGYTFTNYDINWVRQATGQGPEWMGWMHPNSGNTGYAKKFQGRVTMTRNTSISAAYMVLSSLRSEDTAVYYCALSSGWYYFDYWGQGTLVTVSS VL: not shown	-3	0	1
9G9 (antibody, V domains shown, hybridoma mAb) VH: not shown VL: QSVLTQPPSASGTPGQRVNMSCSGTNSNIGSYTVNWYQQLPGTAPKLLIYINNQRPSGVPDRFSGSKSGTSASLAISGLQSEDEADYYCAAWDDSLNGHVVFGGRTKLTVL	38	55	25
147D10 (antibody, V domains shown, hybridoma mAb) VH: EVQLLESGGGLVQPGGSLRLSCAASGFTFSSYAMSWVRQAPGKGLEWVSAISGRGGNTFYADSVKGRFTISRDNSKNTLYLQMNSLRAEDTAVYYCAKKDYDYVWGSPYFDYWGQGTLVTVSS VL: DIQMTQSPASVSASVGDRVTITCRASQNISNWLTWYQQKPGKAPKLLIYAASSLQSGVPSRFSGSGSGTDFTLSISSLQPEDFATYYCQQTDSFPFTFGPGTKVDVK	4	11	13
52H2 (antibody, V domains shown, hybridoma mAb) VH: EVQLLESGGGLVQPGGSLRLSCAASGFTFSRNAMSWVRQAPGMGLEWVSAISGRGGNTFYADSVKGRFTVSRDNSKNTLFLQMNSLRAEDTAVYYCAKNGREQWLDYWGQGTLVTVSS VL: DIQMTQSPSSVSASVGDRVTITCRASQNITNWLAWFQQKPGRAPKLLIYTTSSLQSGVPSRFSGSGSGTDFTLTISSLQPEDFATYCCQQTNSFPWTFGHGTKVEVK	11	32	26
7F4 (antibody, V domains shown, hybridoma mAb) VH: QLQLQESGPGLVKPSETLSLTCTVSGGSISRSSYYWGWIRQPPGKGLEWIGNIYYSGATYYNPSLKSRVTISVDTSTNQFSLKLSSVTAADTAVYYCARHSGSWSLDYWGQGTLVTVSS VL: DIQMTQSPSSLSASVGDRVTITCRTSQGIRNDLGWYQQKPGKAPKRLIYAASNLQSGVPSRFSGSGSGTEFTLTISSLQPEDFATYYCLQHSAYPLTFGGGTKVEIK	6	9	4
48B12 (antibody, V domains shown, hybridoma mAb) VH: EVQLLESGGGLVQPGGSLRLSCAASGFTFSSYAMNWVRQAPGKGLEWVSAISGRGGNTFYADSVKGRFTISRDNSKNTLYLQMNSLRAEDTAVYYCAKRETYNWNYEGFDYWGQGTLVTVSS VL: SYELTQPPSVSVSPGQTARITCSGDALPKKYAYWYQQKSGQAPVLVIYEDSKRPSGIPERFSGSSSGTMATLTISGAQVEDEADYYCNSTDSSGNHVVFGGGTKLTVL	-6	0	4

The next lines start with the values.

% Change Compared to pH 7.4 + Calcium [1] [%]	% Change Compared to pH 7.4 + Calcium [2] [%]	% Change Compared to pH 7.4 + Calcium [3] [%]	Binder
20	30	64	72F5 (antibody, V domains shown, hybridoma mAb) VH: EVQLLESGGGLVQPGGSLRLSCAASGFTFSSYAMIWVRQAPGKGLEWVSTISGSGGYTYSADSVKGRFTISRDNSKNTLYLQMNSLRAEDTAVYYCARRIAVTGTEWYDPWGQGTLVTVSS VL: DIQMTQSPSSLSASVGDRVIIPCRASQNISSYLNWYQQKPGKAPKLLIYAASSLQSGVPSRFSGSGSGTDFTLTISSLQPEDFATYSCQQTYSTPTFGQGTRLDIN
-4	20	5	147E9 (antibody, V domains shown, hybridoma mAb) VH: EVQLVESGGGLVQPGGSLRLSCAASGFTFSSYSMNWVRQAPGKGLEWVSSISGRNTTIYYADSVKGRFTISRDNAKNSLYLQMNSLRDEDTAVYYCSRDRGSCWGQGTLVTVSS VL: DIQMTQSPSSLSASVGDRVTITCRASQDINNYLAWFQQKPGKAPKSLIVAASSLQSGVPSKFSGSGSGTDFTLTISSLQPEDFATYYCQQYNSYPLTFGGGTKVEIK
3	11	11	149D11 (antibody, V domains shown, hybridoma mAb) VH: EVQLLESGGGLVQPGGSLRLSCAASGFTFSSYAMSWVRQAPGKGLEWVSAISGRGGNTFYADSVKGRFTISRDNSKNTLYRQMNSLRAEDTAVYYCAKKDYDYVWGSPYFDYWGQGTLVTVSS VL: DIQMTQSPASVSASVGDRVTITCRASQNISNWLTWYQQKPGKAPKLLIYAASSLQSGVPSRFSGSGSGTDFTLSISSLQPEDFATYYCQQTDSFPFTFGPGTKVDVK
-8	-1	1	149F8 (antibody, V domains shown, hybridoma mAb) VH: EVQLLESGGGLVQPGGSLRLSCAASGFTFSSYAMSWVRQAPGKGLEWVSAISGRGGNTFYADSVKGRFTISRDNSKNTLYLQMNSLRAEDTAVYYCAKKDYDYVWGSPYFDYWGQGTLVTVSS VL: DIQMTQSPASVSASVGDRVTITCRASQGISNWLAWYQQKPGKAPKLLIYAASSLQSGVPSRFSGNESGTDFTLSISSLQPEDFAIYYCQQTDSFPFTFGPGTKVDVK
10	24	24	64G12 (antibody, V domains shown, hybridoma mAb) VH: EVQLLESGGGLVQPGGSLRLSCAASGFTFSSNAMSWVRQAPGKGLEWVSVISGSGGSTYYADSVKGRFTISRDNSKNTLYLQMNSLRAEDTALYYCAKRNYDDAFDIWGQGTMVTVSS VL: DIQMTQSPSSVSASVGDRVTITCRASQNITTWLAWYQQKPGKAPKLLISAASSLQSGVPSRFSGSGSGTDFTLTISSLQPEDFATYICQQANSFPFTFGPGTKLDIK
39	47	22	68G6 (antibody, V domains shown, hybridoma mAb) VH: QVQLVQFGGEVKKPGSSVKVSCKASGYTFTGYYMHWVRQAPGQGLEWMGSIYRNSGGTNYAQKFQGRVTMTRDKSISTAYMEKSRIRSDDTAVYYCARAFYYGSGTYYNEFDYWGQGTLVTVSS VL: SYEVTQPPSVSVSPGQTASITCSGDKLGDKYTYWYQQKAGQSPFLVIYQDRKRPSGIPDRFSGSNSGNTATLTISGTQAMDAADFYCQAWDNSTAVFGGGTKLTVL
18	37	25	65F10 (antibody, V domains shown, hybridoma mAb) VH: QVQLVQSGAEVKKPGASVKVSCKASGYTFTGYHMHWVRQAPGQGLEWMGWINPNNGGTSYAQKFQDRVNMTRDTSISTAYMELSRLRSDDTAVYYCARDSRSSWDYWGQGTLVTVSS VL: DIQMTQSPSSVSASVGDRVTITCRGGQGISTWLAWYQQKPGKAPKLLIYAASILQSGVPSRFRGRGSGTDFTLTISSLQPEDFATYYCQQGNIFPFTFGRGTKVDIK
